Here are results for seven molecules from patent publication US20250382369A1 (UCL BUSINESS, published 2025).

Substitutions are numbered along the chain they refer to.

The target in test [1] is T1, recombinant mouse B7-H3 (plate bound) (mouse, UniProt Q8VE98 29-244, limits assumed).
T1 sequence (looked up): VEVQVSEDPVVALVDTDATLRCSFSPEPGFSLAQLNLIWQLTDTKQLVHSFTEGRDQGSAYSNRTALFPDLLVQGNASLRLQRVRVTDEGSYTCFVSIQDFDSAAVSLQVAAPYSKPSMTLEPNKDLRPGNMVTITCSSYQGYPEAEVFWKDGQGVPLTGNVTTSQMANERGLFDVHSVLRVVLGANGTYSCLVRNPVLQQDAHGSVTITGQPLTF
The experiment in a line: binding ELISA with immobilised recombinant protein (FIG. 28C). The procedure: (§1) TC6, TF9 and BH6 were produced as chimeric antibodies with a human IgG1 Fc domain. Antibodies were purified on protein A columns (Cytiva) and were tested in ELISA against plate bound antigen, with detection using goat anti-human IgG (H+L) (SeraCare). Cross reactivity against mouse B7-H3 was tested using flow cytometry against the mouse cell line 3T3/NA1.
In general terms: In an ELISA, binding on a coated surface is turned into a signal by an enzyme label.

Test [2] has as its target T2, human B7H3 expressed on cell surface (human, UniProt Q5ZPR3 29-534).
T2 construct: whole, on cells; also called B7-H3 on LAN-1, Kelly, IMR-32 and other B7-H3 positive target cell lines
T2 sequence (looked up): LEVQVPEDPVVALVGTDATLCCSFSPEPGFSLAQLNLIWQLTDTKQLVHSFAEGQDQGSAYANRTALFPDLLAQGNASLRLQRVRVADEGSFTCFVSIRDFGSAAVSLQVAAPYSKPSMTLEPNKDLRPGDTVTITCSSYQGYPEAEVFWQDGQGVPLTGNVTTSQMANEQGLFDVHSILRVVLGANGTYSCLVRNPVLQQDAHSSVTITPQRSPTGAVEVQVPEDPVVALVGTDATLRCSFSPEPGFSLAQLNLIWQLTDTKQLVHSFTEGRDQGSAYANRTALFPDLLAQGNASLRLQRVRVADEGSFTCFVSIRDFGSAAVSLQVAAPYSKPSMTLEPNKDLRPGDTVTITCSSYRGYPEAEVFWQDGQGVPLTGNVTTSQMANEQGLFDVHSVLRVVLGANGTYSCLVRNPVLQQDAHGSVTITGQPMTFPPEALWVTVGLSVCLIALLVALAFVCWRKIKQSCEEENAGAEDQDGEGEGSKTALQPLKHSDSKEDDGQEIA
Kind of test: flow cytometry, chimeric IgG1 and anti-human secondary on neuroblastoma lines and B7-H3 positive Jurkat lines (FIG. 6). The text has this: FIG. 6—Chimeric antibodies derived from TE9 and BH6 show specificity for human B7H3 expressed on cell surface. TE9 and BH6 ScFv that had been cloned into full human IgG1 antibodies were used in staining experiments. A. Chimeric human IgG1 full antibodies derived from TE9 and BH6 ScFvs were used to stain 3 neuroblastoma cell lines, LAN-1, Kelly and IMR-32. […] B. Chimeric antibodies TE9 and BH6 were used to stain the 3 B7-H3 positive Jurkat cell lines, 4Ig-B7-H3, 2Ig-B7-H3 and T-B7-H3 (see FIG. 2)
(In general: In flow cytometry, cells or beads pass a laser one at a time.)

Test [3] addresses T3, mouse B7-H3 on the mouse cell line 3T3/NA1 (mouse, UniProt Q8VE98 29-316).
T3 construct: whole, on cells
T3 sequence (looked up): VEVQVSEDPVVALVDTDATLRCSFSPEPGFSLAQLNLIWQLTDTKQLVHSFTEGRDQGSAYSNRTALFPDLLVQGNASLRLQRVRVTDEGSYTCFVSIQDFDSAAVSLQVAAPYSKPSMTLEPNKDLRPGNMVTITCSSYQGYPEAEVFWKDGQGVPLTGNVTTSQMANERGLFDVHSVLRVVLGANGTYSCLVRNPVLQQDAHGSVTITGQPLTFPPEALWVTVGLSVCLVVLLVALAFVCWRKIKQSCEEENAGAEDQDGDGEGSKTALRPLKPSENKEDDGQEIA
The experiment in a line: flow cytometry on the mouse cell line 3T3/NA1 (FIG. 5A). As to the method: as §1

Test [4] has as its target T4, human 4Ig-B7-H3 expressed on transduced cells (human, UniProt Q5ZPR3 29-534).
T4 construct: also called isoform 1; Jurkat-B7H3
T4 sequence: T2 sequence (looked up)
Kind of test: flow cytometry, scFv-Fc on Jurkat cells transduced with B7-H3 isoforms (FIG. 2D).

B1: TE9 chimeric human IgG1 full antibody (antibody, V domains shown)
VH: QVQLQQSGAALVKPGTSVKLSCKASGYTFTSYWMHWVKQRPGQGLEWIGMIHPKSGSVDYNEKFTNKATLTGDKSSGTAYMQLSSLTSEDSAVYYCARGGYGSPFDYWGQGTTVTVSS
VL: ENVLTQSPAIMSASPGEKVTMTCSASSSVSYMYWYQQKPGSSPRLLIYRTSNLASGVPARFSGSGSGTSYSLTISSMEAEDAATYYCQQWSSNPPTFGGGTKLEIK
notes: Chimeric antibody, mouse variable domains cloned into full human IgG1; also called TE9 antibody; TE9 whole antibody
Turning to B1, the binding result in test [1] is listed as “no binding”; in test [2] it was “binds”.

B2: BH6 chimeric human IgG1 full antibody (antibody, V domains shown)
VH: QVKLQQSGADLVKPGASVKLSCKASGYTFTSYWMHWVKQRPGQGLEWIGMIHPNSDGTNYNEKFKNRATLTVDKSSSTAYMQLNSLTSEDSAVYYCARWSYGMDSWGQGTTVTVSS
VL: DIVLTQSPASLAVSLGQRATITCSASSSVSYMHWYQQKSGTSPKRWIYDTSKLASGVPARFSGSGSGTSYSLTISSMEAEDAATYYCQQWSRNPLTFGAGTKLEIK
notes: Chimeric antibody with a human IgG1 Fc domain; also called BH6 antibody
On to B2, for which the binding result in test [3] and in test [2] was “binds” throughout.

B3: BF9 scFv-Fc fusion protein (Fc fusion)
scFv: QVKLQQSGAELVKPGASVKLSCKASGYTFTSYWVHWVKQRPGQGLEWIGMIHPKSGSADYNEKFTTKATLTADKSSSTAYMQLSSLTSEDSAVYYCARGGYGSPFDYWGQGTTVTVSSGGGGSGGGGSGGGGSENVLTQSPAIMSASPGEKVTMTCSASSSVSYMYWYQQKPGSSPRLLIYDTSNLASGAPVRFSGRGSGTSYSLTISSMEAEDAATYYCQQWSNNPLTFGAGTKLELK
notes: not shown: Fc of the scFv-Fc fusion, and any hinge or junction to it
Regarding B3, the binding result in test [4] is recorded as “binds”.

B4: TC6 scFv-Fc fusion protein (Fc fusion, not shown: a dimerising Fc or GST; small tags and cut ends)
scFv: QVKLQESGAELVKPGASVKLSCKASGYTFTSYWIHWVKQRPGQGLEWIGMIHPKSGSINYNEKFRSKATLTVDKSSSTAYMQLSRLTSEDSAVYFCASGGYGSSLDYWGQGTTVTVSSGGGGSGGGGSGGGGSQIVLTQSPAIMSASPGEKVTMTCSASSSVSYMYWYQQKPRSSPISWIYLTSNLASGVPARFSGSGSGTSYSLTISSMEAEDAATYYCQQWSSDPLTFGAGTKLELK
As for B4, the binding result in test [4] is “binds”.

B5: TF9 scFv-Fc fusion protein (Fc fusion)
scFv: B4 scFv with Q134E, I135N, M154I, T155S, M165V, R173G, I177K, S178P, L182R, D226N
notes: as for B3
Consider B5, for which the binding result in test [4] is “binds”.

B6: BH6 scFv-Fc fusion protein (Fc fusion, not shown: a dimerising Fc or GST; small tags and cut ends)
scFv: QVKLQQSGADLVKPGASVKLSCKASGYTFTSYWMHWVKQRPGQGLEWIGMIHPNSDGTNYNEKFKNRATLTVDKSSSTAYMQLNSLTSEDSAVYYCARWSYGMDSWGQGTTVTVSSGGGGSGGGGSGGGGSDIVLTQSPASLAVSLGQRATITCSASSSVSYMHWYQQKSGTSPKRWIYDTSKLASGVPARFSGSGSGTSYSLTISSMEAEDAATYYCQQWSRNPLTFGAGTKLEIK
Consider B6, for which the binding result in test [4] is on record as “binds”.

B7: TE9 scFv-Fc fusion protein (Fc fusion, not shown: a dimerising Fc or GST; small tags and cut ends)
scFv: QVQLQQSGAALVKPGTSVKLSCKASGYTFTSYWMHWVKQRPGQGLEWIGMIHPKSGSVDYNEKFTNKATLTGDKSSGTAYMQLSSLTSEDSAVYYCARGGYGSPFDYWGQGTTVTVSSGGGGSGGGGSGGGGSENVLTQSPAIMSASPGEKVTMTCSASSSVSYMYWYQQKPGSSPRLLIYRTSNLASGVPARFSGSGSGTSYSLTISSMEAEDAATYYCQQWSSNPPTFGGGTKLEIK
For B7, in test [4], the binding result is on record as “binds”.
